Paper PMC10786891, “Massively parallel profiling of RNA-targeting CRISPR-Cas13d”
Residue numbers refer to the chain shown, from its start. Names may count otherwise.

T1: EsCas13d, nuclease-dead (Eubacterium siraeum, UniProt B0MS50, R295A;H300A;R849A;H854A)
T1 sequence: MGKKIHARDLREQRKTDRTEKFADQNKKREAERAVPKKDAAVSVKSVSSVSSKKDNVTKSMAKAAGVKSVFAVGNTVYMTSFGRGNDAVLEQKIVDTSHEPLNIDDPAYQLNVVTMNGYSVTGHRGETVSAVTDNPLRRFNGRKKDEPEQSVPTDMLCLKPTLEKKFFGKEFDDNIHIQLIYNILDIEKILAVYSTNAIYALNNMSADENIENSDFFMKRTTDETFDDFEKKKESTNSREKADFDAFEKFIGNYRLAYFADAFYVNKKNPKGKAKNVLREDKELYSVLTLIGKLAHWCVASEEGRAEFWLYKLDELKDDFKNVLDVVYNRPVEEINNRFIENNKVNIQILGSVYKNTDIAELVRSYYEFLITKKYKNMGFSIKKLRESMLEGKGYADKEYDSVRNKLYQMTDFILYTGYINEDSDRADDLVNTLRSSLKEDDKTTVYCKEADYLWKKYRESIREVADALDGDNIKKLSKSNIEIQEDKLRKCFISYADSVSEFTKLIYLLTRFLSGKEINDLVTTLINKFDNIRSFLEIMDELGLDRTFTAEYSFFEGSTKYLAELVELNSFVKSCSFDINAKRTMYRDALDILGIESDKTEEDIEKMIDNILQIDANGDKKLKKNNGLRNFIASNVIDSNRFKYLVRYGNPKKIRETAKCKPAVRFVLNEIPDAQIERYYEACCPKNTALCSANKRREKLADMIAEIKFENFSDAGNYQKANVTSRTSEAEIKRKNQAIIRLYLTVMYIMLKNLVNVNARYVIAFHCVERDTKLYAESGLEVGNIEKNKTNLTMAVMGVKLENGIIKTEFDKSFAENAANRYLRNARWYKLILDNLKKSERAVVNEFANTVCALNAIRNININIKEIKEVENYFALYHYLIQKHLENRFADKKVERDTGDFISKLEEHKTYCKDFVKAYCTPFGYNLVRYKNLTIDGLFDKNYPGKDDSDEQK

B1: target 1 insA 3' of 22,insU 3' of 9 (mixed)
RNA 1: CACCCGUGCAAAAAUGCAGGGGUCUAAAACUGAGCGGAUAACCUCUCUAUGG
RNA 2: GGGAAUGGAUCCACAUCUACGAAUUCGUACACAUAGAGAGGUUAUUCCGCUCACCGAGAUCGGAAGAGCACACGU
B2: target 1 insG 3' of 7,insU 3' of 5 (mixed)
RNA 1: B1 RNA 1
RNA 2: GGGAAUGGAUCCACAUCUACGAAUUCGUACCAUAGAGAGGUUAUCGCGUCUCACCGAGAUCGGAAGAGCACACGU
B3: target 1 insC 3' of 12,insA 3' of 5 (mixed)
RNA 1: B1 RNA 1
RNA 2: B2 RNA 2 with U41C, A43U, U44A, C45U, G46C, U49A
B4: target 1 insA 3' of 19,insG 3' of 16 (mixed)
RNA 1: B1 RNA 1
RNA 2: B1 RNA 2 with A31C, C32A, A33U, U34A, A39G, G40A, U42G, A44U, U45A
B5: target 1 insU 3' of 7,insA 3' of 6 (mixed)
RNA 1: B1 RNA 1
RNA 2: B2 RNA 2 with G46U, G48A, U49G
B6: target 1 G12U,A16C (mixed)
RNA 1: B1 RNA 1
RNA 2: GGGAAUGGAUCCACAUCUACGAAUUCGUACCAUAGCGAGUUUAUCCGCUCACCGAGAUCGGAAGAGCACACGU
B7: target 1 insU 3' of 17,insA 3' of 7 (mixed)
RNA 1: B1 RNA 1
RNA 2: B1 RNA 2 with A31C, C32A, A33U, U34A, A35G, G36U, U46C, C47A
B8: target 1 C2U,A16G (mixed)
RNA 1: B1 RNA 1
RNA 2: B6 RNA 2 with C36G, U40G, C50U
B9: target 1 insG 3' of 4,insA 3' of 4 (mixed)
RNA 1: B1 RNA 1
RNA 2: B2 RNA 2 with G46C, C47G, G48C, U49G, C50A
B10: target 1 G15A,G17U (mixed)
RNA 1: B1 RNA 1
RNA 2: B6 RNA 2 with G35U, C36A, G37A, U40G
B11: target 1 insA 3' of 19,insA 3' of 13 (mixed)
RNA 1: B1 RNA 1
RNA 2: B1 RNA 2 with A31C, C32A, A33U, U34A, G41A, U42G, A44U, U45A
B12: target 1 insG 3' of 10,insG 3' of 6 (mixed)
RNA 1: B1 RNA 1
RNA 2: B2 RNA 2 with A43G, U44A, C45U, G46C, U49G
B13: target 1 insG 3' of 16,insA 3' of 8 (mixed)
RNA 1: B1 RNA 1
RNA 2: B1 RNA 2 with A31C, C32A, A33U, U34A, A35G, G36A, A37G, U46A
B14: target 1 G15C,G17C (mixed)
RNA 1: B1 RNA 1
RNA 2: B6 RNA 2 with G35C, C36A, G37C, U40G
B15: target 1 U3A,G12C (mixed)
RNA 1: B1 RNA 1
RNA 2: B6 RNA 2 with C36A, U40C, U49A
B16: target 1 C6U (mixed)
RNA 1: B1 RNA 1
RNA 2: B6 RNA 2 with C36A, U40G, C46U
B17: target 1 A1G,C22A (mixed)
RNA 1: B1 RNA 1
RNA 2: B6 RNA 2 with C30A, C36A, U40G, A51G
B18: target 1 insA 3' of 6,insG 3' of 4 (mixed)
RNA 1: B1 RNA 1
RNA 2: B2 RNA 2 with G46C, C47A, U49C, C50G
B19: target 1 C6A,A18U (mixed)
RNA 1: B1 RNA 1
RNA 2: B6 RNA 2 with A34U, C36A, U40G, C46A
B20: target 1 insU 3' of 6 (mixed)
RNA 1: B1 RNA 1
RNA 2: GGGAAUGGAUCCACAUCUACGAAUUCGUACCAUAGAGAGGUUAUCCUGCUCACCGAGAUCGGAAGAGCACACGU
B21: target 1 A14G,C21A (mixed)
RNA 1: B1 RNA 1
RNA 2: B6 RNA 2 with C31A, C36A, A38G, U40G
B22: target 1 insU 3' of 22,insG 3' of 9 (mixed)
RNA 1: B1 RNA 1
RNA 2: B1 RNA 2 with A31U, U45G
B23: target 1 insU 3' of 13,insG 3' of 8 (mixed)
RNA 1: B1 RNA 1
RNA 2: B2 RNA 2 with G40U, U41G, A43U, U44A, C45U, G48C, U49G
B24: target 1 insC 3' of 18,insA 3' of 17 (mixed)
RNA 1: B1 RNA 1
RNA 2: GGGAAUGGAUCCACAUCUACGAAUUCGUACCAUACGAAGAGGUUAUCCGCUCACCGAGAUCGGAAGAGCACACGU
B25: target 1 insA 3' of 12,insG 3' of 10 (mixed)
RNA 1: B1 RNA 1
RNA 2: B24 RNA 2 with C35G, G36A, A37G, A40G, G41A, G42U, U44G
B26: target 1 insG 3' of 19,insU 3' of 9 (mixed)
RNA 1: B1 RNA 1
RNA 2: B1 RNA 2 with A31C, C32A, A33U, U34G
B27: target 1 insA 3' of 22,insG 3' of 7 (mixed)
RNA 1: B1 RNA 1
RNA 2: B1 RNA 2 with U46C, C47G
B28: target 1 insG 3' of 6,insA 3' of 3 (mixed)
RNA 1: B1 RNA 1
RNA 2: B2 RNA 2 with G46C, C47G, U49C, C50U, U51A
B29: target 1 del3,del8 (mixed)
RNA 1: B1 RNA 1
RNA 2: GGGAAUGGAUCCACAUCUACGAAUUCGUACCAUAGAGAGGUUACCGCCACCGAGAUCGGAAGAGCACACGU
B30: target 1 U8A,A18U (mixed)
RNA 1: B1 RNA 1
RNA 2: B6 RNA 2 with A34U, C36A, U40G, U44A
B31: target 1 U10C,G13U (mixed)
RNA 1: B1 RNA 1
RNA 2: B6 RNA 2 with C36A, G39U, U40G, U42C
B32: target 1 insU 3' of 15,insG 3' of 3 (mixed)
RNA 1: B1 RNA 1
RNA 2: GGGAAUGGAUCCACAUCUACGAAUUCGUACCAUAGAGUAGGUUAUCCGCUGCACCGAGAUCGGAAGAGCACACGU
B33: target 1 G5A,G12A (mixed)
RNA 1: B1 RNA 1
RNA 2: B6 RNA 2 with C36A, U40A, G47A
B34: target 1 insC 3' of 17,insU 3' of 12 (mixed)
RNA 1: B1 RNA 1
RNA 2: B24 RNA 2 with C35G, G36C, A38G, G39A, A40G, G42U

Each binder was assayed against T1, EsCas13d, nuclease-dead (assay: crRNA (strand 1, pre-loaded); Mg2+; 40 mM Tris-HCl pH 7.5, 150 mM NaCl, 6 mM MgCl2, 1 mM DTT, 0.1% Tween-20, 0.2 mg/ml BSA; 25 C; 10 min per concentration, then washed). Settings: tags: His6-TwinStrep-SUMO cleaved; N-terminal SNAP kept (SNAP-Surface 488); label: 3' end held by stalled T7 RNA polymerase.
Binder B1 has a Kd of 21.6 ± 1.5 nM.
B2 showed a Kd of 13.8 ± 1 nM.
In the case of B3, the Kd is reported as 10.4 ± 1.1 nM.
For B4, the Kd was 46 ± 6 nM.
Work on B5 yielded a Kd of 23.7 ± 0.8 nM.
With B6 the Kd was 76 ± 14 nM.
B7 gave a Kd of 14.2 ± 1.2 nM.
B8 gave a Kd of 39.3 ± 2.7 nM.
B9 showed a Kd of 4.63 ± 0.25 nM.
With B10 the Kd was 73 ± 13 nM.
For B11, the Kd was 17.9 ± 2 nM.
B12 gave a Kd of 22.2 ± 1.5 nM.
With B13 the Kd was 22.1 ± 1.8 nM.
Work on B14 yielded a Kd of 50 ± 10 nM.
B15 showed a Kd of 8.5 ± 0.4 nM.
B16 was tested, and the Kd was 8.5 ± 0.4 nM.
Binder B17 has a Kd of 12 ± 0.7 nM.
B18 showed a Kd of 12.7 ± 0.6 nM.
In the case of B19, the Kd is reported as 26.7 ± 2.1 nM.
Binder B20 has a Kd of 12.8 ± 0.7 nM.
For B21, the Kd was 46 ± 12 nM.
B22 showed a Kd of 76 ± 12 nM.
For B23, the Kd was 11.9 ± 1.3 nM.
Binder B24 has a Kd of 50 ± 6 nM.
With B25 the Kd was 29.2 ± 3.2 nM.
For B26, the Kd was 92 ± 34 nM.
For B27, the Kd was 8.62 ± 0.35 nM.
Binder B28 has a Kd of 6.9 ± 0.4 nM.
B29 gave a Kd of 7.05 ± 0.33 nM.
B30 was tested, and the Kd was 78 ± 23 nM.
B31 was tested, and the Kd was 71 ± 18 nM.
B32 gave a Kd of 6.99 ± 0.32 nM.
In the case of B33, the Kd is reported as 10.2 ± 1.5 nM.
B34 was tested, and the Kd was 42 ± 6 nM.
